Test results: the supplement of paper PMC10567573

B1: TSN (parent)
chain: AFVVYLETETLVTREAVTEILGIE

Variants of: B1
Assay: protein stability index of a GFP-peptide fusion (GPS, HEK-293T) (PSI 1-6); higher = more stable
Details: c terminus: a fixed tail appended
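Further: lentivirally expressed fusions sorted by FACS into six bins by GFP to DsRed ratio, PSI derived from sequencing read proportions per bin multiplied by bin number.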

Row | Variant | protein stability index
1 | AFVVYLENETLVTREAVTEILGIE | 3.62
2 | AFVVYLECETLVTREAVTEILGIE | 2.57
3 | AFVVYLEYETLVTREAVTEILGIE | 1.7
4 | AFVVYLESETLVTREAVTEILGIE | 2.93
5 | AFVVYLEAETLVTREAVTEILGIE | 2.27
6 | AFVVYLERETLVTREAVTEILGIE | 4.36
7 | AFVVYLEQETLVTREAVTEILGIE | 2.06
8 | AFVVYLEKETLVTREAVTEILGIE | 2.53
9 | AFVVYLEHETLVTREAVTEILGIE | 3.17
10 | AFVVYLEEETLVTREAVTEILGIE | 1.4
11 | AFVVYLEVETLVTREAVTEILGIE | 2.41
12 | AFVVYLEDETLVTREAVTEILGIE | 1.94
13 | AFVVYLEIETLVTREAVTEILGIE | 2.34
14 | AFVVYLETETLVTREAVTEIEGIE | 1.97
15 | AFVVYLETETLVTREAVTEICGIE | 2.36
16 | AFVVYLETETLVTREAVTEISGIE | 2.04
17 | AFVVYLETETLVTREAVTEIGGIE | 2.44
18 | AFVVYLETETLVTREAVTEINGIE | 2.64
19 | AFVVYLETETLVTREAVTEIWGIE | 2.52
20 | AFVVYLETETLVTREAVTEIYGIE | 2.1
21 | AFVVYLETETLVTREAVTEIIGIE | 2.57
22 | AFVVYLETETLVTREAVTEIAGIE | 3.48
23 | AFVVYLETETLVTREAVTEIPGIE | 2.34
24 | AFVVYLETETLVTREAVTEIVGIE | 3.75

Row | Variant | protein stability index
25 | AFVVYLETETLITREAVTEILGIE | 3.19
26 | AFVVYLETETLATREAVTEILGIE | 3.16
27 | AFVVYLETETLHTREAVTEILGIE | 2.21
28 | AFVVYLETETLMTREAVTEILGIE | 3.5
29 | AFVVYLETETLLTREAVTEILGIE | 2.56
30 | AFVVYLETETLNTREAVTEILGIE | 2.9
31 | AFVVYLETETLYTREAVTEILGIE | 2.53
32 | AFVVYLETETLETREAVTEILGIE | 2.35
33 | AFVVYLETETLGTREAVTEILGIE | 2.73
34 | AFVVYLETETLQTREAVTEILGIE | 1.94
35 | AFVVYLETETLTTREAVTEILGIE | 4.69
36 | AFVVYLETETLPTREAVTEILGIE | 1.74
37 | AFVVYLETETLRTREAVTEILGIE | 2.51
38 | AFVVYLETETLDTREAVTEILGIE | 4.41
39 | AFVVYLETECLVTREAVTEILGIE | 2.82
40 | AFVVYLETELLVTREAVTEILGIE | 2.29
41 | AFVVYLETEVLVTREAVTEILGIE | 2.5
42 | AFVVYLETEPLVTREAVTEILGIE | 2.45
43 | AFVVYLETEALVTREAVTEILGIE | 1.65
44 | AFVVYLETEFLVTREAVTEILGIE | 3.32
45 | AFVVYLETEKLVTREAVTEILGIE | 3.37
46 | AFVVYLETEMLVTREAVTEILGIE | 1.36
47 | AFVVYLETEDLVTREAVTEILGIE | 2.79
48 | AFVVYLETEHLVTREAVTEILGIE | 2.83

Row | Variant | protein stability index
49 | AFVVYLETEQLVTREAVTEILGIE | 1.68
50 | AFVVYLETEELVTREAVTEILGIE | 1.39
51 | AFVVYLETESLVTREAVTEILGIE | 2.76
52 | AFVVYLETERLVTREAVTEILGIE | 2.22
53 | AFVVYLETEYLVTREAVTEILGIE | 2.36
54 | AFVVYLETETLVTREAVTEILAIE | 3.71
55 | AFVVYLETATLVTREAVTEILGIE | 2.65
56 | AFVVYLETWTLVTREAVTEILGIE | 3.68
57 | AFVVYLETSTLVTREAVTEILGIE | 2.9
58 | AFVVYLETLTLVTREAVTEILGIE | 1.46
59 | AFVVYLETGTLVTREAVTEILGIE | 3.65
60 | AFVVYLETRTLVTREAVTEILGIE | 1.65
61 | AFVVYLETMTLVTREAVTEILGIE | 2.42
62 | AFVVYLETITLVTREAVTEILGIE | 2.44
63 | AFVVYLETNTLVTREAVTEILGIE | 3.46
64 | AFVVYLETCTLVTREAVTEILGIE | 2.38
65 | AFVVYLETDTLVTREAVTEILGIE | 3.4
66 | AFVVYLETETLVNREAVTEILGIE | 1.72
67 | AFVVYLETETLVRREAVTEILGIE | 3.01
68 | AFVVYLETETLVWREAVTEILGIE | 1.62
69 | AFVVYLETETLVDREAVTEILGIE | 1.81
70 | AFVVYLETETLVEREAVTEILGIE | 1.06
71 | AFVVYLETETLVKREAVTEILGIE | 1.63
72 | AFVVYLETETLVVREAVTEILGIE | 2.31

Row | Variant | protein stability index
73 | AFVVYLETETLVFREAVTEILGIE | 3.68
74 | AFVVYLETETLVGREAVTEILGIE | 2.1
75 | AFVVYLETETLVAREAVTEILGIE | 2.44
76 | AFVVYLETETLVYREAVTEILGIE | 3.33
77 | AFVVYLETETLVIREAVTEILGIE | 1.31
78 | AFVVYLETETLVCREAVTEILGIE | 2.48
79 | AFVVYLETETLVMREAVTEILGIE | 3.48
80 | AFVVYLETETLVHREAVTEILGIE | 2.05
81 | AFVVYLETETLVTREAVTEWLGIE | 2.75
82 | AFVVYLETETLVTREAVTEQLGIE | 5.44
83 | AFVVYLETETLVTREAVTEPLGIE | 1.67
84 | AFVVYLETETLVTREAVTEYLGIE | 1.56
85 | AFVVYLETETLVTREAVTEKLGIE | 2.91
86 | AFVVYLETETLVTREAVTEFLGIE | 3.74
87 | AFVVYLETETLVTREAVTERLGIE | 3.48
88 | AFVVYLETETLVTREAVTEMLGIE | 3.81
89 | AFVVYLETETLVTREAVTEELGIE | 1.28
90 | AFVVYLETETLVTREAVTEDLGIE | 1.6
91 | AFVVYLETETLVTREAVTEHLGIE | 2.68
92 | AFVVYLETETLVTREAVTELLGIE | 4.11
93 | AFVVYLETETLVTREAVTEALGIE | 2.66
94 | AFVVYLETETLVTREAVTENLGIE | 1.98
